Reference: publication PMC6668440, “A one-gate elevator mechanism for the human neutral amino acid transporter ASCT2” (Nature Communications, 2019)
Numbering of substitutions follows the chain as printed. Names may count otherwise.

B1: human Alanine Serine Cysteine Transporter 2 with the C467R mutation (ASCT2_(C467R)) (natural protein)
chain: MVADPPRDSKGLAAAEPTANGGLALASIEDQGAAAGGYCGSRDQVRRCLRANLLVLLTVVAVVAGVALGLGVSGAGGALALGPERLSAFVFPGELLLRLLRMIILPLVVCSLIGGAASLDPGALGRLGAWALLFFLVTTLLASALGVGLALALQPGAASAAINASVGAAGSAENAPSKEVLDSFLDLARNIFPSNLVSAAFRSYSTTYEERNITGTRVKVPVGQEVEGMNILGLVVFAIVFGVALRKLGPEGELLIRFFNSFNEATMVLVSWIMWYAPVGIMFLVAGKIVEMEDVGLLFARLGKYILCCLLGHAIHGLLVLPLIYFLFTRKNPYRFLWGIVTPLATAFGTSSSSATLPLMMKCVEENNGVAKHISRFILPIGATVNMDGAALFQCVAAVFIAQLSQQSLDFVKIITILVTATASSVGAAGIPAGGVLTLAIILEAVNLPVDHISLILAVDWLVDRSRTVLNVEGDALGAGLLQNYVDRTESRSTEPELIQVKSELPLDPLPVPTEEGNPLLKHYRGPAGDATVASEKESVM
notes: human ASCT2 (SLC1A5), codon optimised gene on the pPICZ-A plasmid, with the single point mutation C467R; residues 43-159 and 177-489 were modelled in the map; Homotrimer (172 kDa) in DDM + CHS micelles; the tag and the limits are not described here; also called SLC1A5 C467R; source: Pichia pastoris X-33, purified (DDM/CHS solubilisation, Ni2+-Sepharose, Superdex 200 SEC)
B2: human Alanine Serine Cysteine Transporter 2, wild type (ASCT2wt) (natural protein)
chain: B1 chain with R467C
notes: human ASCT2 (SLC1A5), codon optimised gene on the pPICZ-A plasmid; Only a map (6.98 Å, C3 imposed) was deposited, no model; also called SLC1A5

Biological target: the molecule itself
Test: cryo-EM structure; single particle cryo-EM of the purified transporter in mixed DDM + CHS micelles (20 mM Tris-HCl pH 7.4, 300 mM NaCl); ASCT2_(C467R) with 1 mM DL-TBOA and without inhibitor, ASCT2wt without substrate; C3 symmetry imposed, classifications without symmetry also done

Row | Protein | stoichiometry N | binding result
1 | B1 | 3 | –
2 | B2 | – | binds
